# Patent US20240100176A1 (Eli Lilly, published 2024)
# T1: human IL-4Rα on cells (human PBMC B cells and CD4+ T cells, Daudi cells, HEK-Blue IL-4/IL-13 cells, myeloid … (human, UniProt P24394 26-825))
# T1 sequence: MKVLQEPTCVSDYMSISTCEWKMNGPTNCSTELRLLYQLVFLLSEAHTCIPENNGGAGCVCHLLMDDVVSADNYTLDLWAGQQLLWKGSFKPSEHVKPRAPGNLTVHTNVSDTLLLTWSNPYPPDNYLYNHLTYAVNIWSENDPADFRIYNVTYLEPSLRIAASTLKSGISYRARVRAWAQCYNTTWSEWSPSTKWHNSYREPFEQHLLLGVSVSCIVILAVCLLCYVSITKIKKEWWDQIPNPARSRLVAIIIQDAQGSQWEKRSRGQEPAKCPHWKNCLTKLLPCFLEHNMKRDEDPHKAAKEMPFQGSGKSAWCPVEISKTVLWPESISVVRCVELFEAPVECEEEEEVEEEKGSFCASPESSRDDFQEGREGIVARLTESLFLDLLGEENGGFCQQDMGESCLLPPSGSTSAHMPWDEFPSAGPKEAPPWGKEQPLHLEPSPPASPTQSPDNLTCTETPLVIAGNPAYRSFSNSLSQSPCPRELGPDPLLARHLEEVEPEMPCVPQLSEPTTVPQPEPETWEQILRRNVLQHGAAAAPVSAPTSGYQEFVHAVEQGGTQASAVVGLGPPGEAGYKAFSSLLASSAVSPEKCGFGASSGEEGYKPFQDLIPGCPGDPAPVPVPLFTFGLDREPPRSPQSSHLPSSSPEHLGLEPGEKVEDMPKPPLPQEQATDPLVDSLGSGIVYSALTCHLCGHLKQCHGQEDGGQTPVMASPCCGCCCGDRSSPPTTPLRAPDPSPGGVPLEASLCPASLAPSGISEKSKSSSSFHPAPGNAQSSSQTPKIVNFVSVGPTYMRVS
# T2: hexahistidine-tagged human IL-4Rα extracellular domain (human, UniProt P24394 26-232)
# T2 construct: In the MSD assay the plate coat is the His-tagged ECD; also called human IL-4Rα ECD; Wild type receptor; not shown: hexahistidine tag
# T2 sequence: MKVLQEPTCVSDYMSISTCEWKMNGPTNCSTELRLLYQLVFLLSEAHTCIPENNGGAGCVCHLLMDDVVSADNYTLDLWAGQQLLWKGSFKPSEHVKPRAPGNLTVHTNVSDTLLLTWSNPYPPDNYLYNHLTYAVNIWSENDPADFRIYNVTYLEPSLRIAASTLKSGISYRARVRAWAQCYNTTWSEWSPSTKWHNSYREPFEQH
# B1: anti-human IL-4Rα antibody Ab1 (antibody, human IgG4 S228P, kappa)
# heavy: QVQLVESGGGLVQPGGSLRLSCVASGFTFSHSSMNWVRQAPGKGLEWVSYISRATGAVYYADSVKGRFTISRDNAKNSLYLQMNSLRDEDTAVYYCAREPVFDYWGQGTLVTVSSASTKGPCVFPLAPCSRSTSESTAALGCLVKDYFPEPVTVSWNSGALTSGVHTFPAVLQSSGLYSLSSVVTVPSSSLGTKTYTCNVDHKPSNTKVDKRVESKYGPPCPPCPAPEFLGGPSVFLFPPKPKDTLMISRTPEVTCVVVDVSQEDPEVKFNWYVDGVEVHNAKTKPREEQFNSTYRVVSVLTVLHQDWLNGKEYKCKVSNKGLPSSIEKTISKAKGQPREPQVYTLPPSREEMTKNQVSLTCLVKGFYPSDICVEWESNGQPENNYKTTPPVLDSDGSFFLYSRLTVDKSRWQQGNVFSCSVMHEALHNHYTQKSLSLSLG
# light: DIQMTQSPSAMSASVGDRVTITCRASQDISNYLAWFQQKPGKVPTRLIYAASSLQSGVPSRFSGSGSGTEFTLTISSLQPEDFATYYCLQWSSYPRTFGQGTKVEIKRTVAAPSVFIFPPSDEQLKSGTASVVCLLNNFYPREAKVQWKVDNALQSGNSQESVTEQDSKDSTYSLSSTLTLSKADYEKHKVYACEVTHQGLSSPVTKSFNRGEC
# notes: human kappa light chain; also called anti-human IL-4Rα Ab1; unconjugated Ab1
# B2: anti-human IL-4Rα Ab1 GC conjugate of Example 1b (n=4) (antibody, human IgG4 S228P, kappa)
# heavy: B1 heavy
# light: B1 light
# modifications: glucocorticoid receptor agonist payload-linker (GC-L, Preparation 8) conjugated to the engineered cysteines at the 124 and 378 position of the heavy chain (EU numbering); n is 4 (average DAR 4.17 by RP-HPLC, 3.85 by TOF MS)
# Legend:
# [1] = molecular target: T1, human IL-4Rα on cells (human PBMC B …); assay: cell-based or functional assay
# [2] = molecular target: T1, human IL-4Rα on cells (human PBMC B …); assay: cell-based or functional assay; remark: listed apart in the source
# [3] = molecular target: T1, human IL-4Rα on cells (human PBMC B …); assay: cell-based or functional assay; remark: listed apart in the source
# [4] = molecular target: T2, hexahistidine-tagged human IL-4Rα …; assay: competition MSD ELISA (solution equilibrium, 37 °C), apparent KD, mean of 3 experiments
# Procedure: Example 3a. […] A 96-well multi-array plate (Meso Scale Diagnostics, Cat. #L15XA-3) was coated at 4° C. overnight with 0.5 μg/mL hexahistidine-tagged human or cynomolgus monkey IL-4Rα ECD in phosphate buffered saline (PBS). Following coating, plates were washed 10 times with 200 μL PBST (PBS with 0.05% Tween® 20) and blocked with 300 μL/well of PBS casein blocking buffer (Pierce, Cat. #37528) at 37° C. for 1 hour. Plates were then washed 10 times as above, and 50 μL of the preincubated antibody:IL-4Rα dilution series was transferred to the wells and incubated at 37° C. with 300 rpm shaking for […]. Plates were washed 10 times with PBST, 50 μL of 1 μg/mL anti-human antibody sulfo-tag 20 (Meso Scale Diagnostics, Cat. #R32AJ-1) was added to the plates for the assay of Table 7a, and anti-Human NHP Kappa Light chain SULFO-TAG 20 (Meso Scale Diagnostics, Cat #D20TF-6) was added to the plates for the assay of Table 7b, and plates were incubated at 37° C. with 300 rpm shaking for 30 minutes. Plates were washed 10 times with PBST, 150 μL/well of 1× Read Buffer T was added to the wells and analyzed on a SECTOR® Imager 6000 (Meso Scale Diagnostics) 15 min after buffer addition. The apparent KD is determined by fitting a sigmoidal curve to the electrochemiluminescence (ECL) response vs. log (soluble IL-4Rα concentration) using GraphPad Prism 9. Data is graphed with normalized ECL values.
binder,measurement,setting,value
B1,"Inhibition of IL-4 induced STAT6 phosphorylation, B cells, IC50",[1],0.019 mg/L
same,"Inhibition of IL-4 induced STAT6 phosphorylation, CD4+ T cells, IC50",[1],0.017 mg/L
same,"Inhibition of IL-13 induced STAT6 phosphorylation in B cells, IC50",[2],0.03 mg/L
same,"Inhibition of IL-4 induced CD23 Expression on myeloid cells, IC50",[3],8.27 nM
same,Kd,[4],0.0312 nM
B2,"Inhibition of IL-4 induced STAT6 phosphorylation, B cells, IC50",[1],0.046 mg/L
same,"Inhibition of IL-4 induced STAT6 phosphorylation, CD4+ T cells, IC50",[1],0.041 mg/L
same,"Inhibition of IL-13 induced STAT6 phosphorylation in B cells, IC50",[2],0.064 mg/L
same,"Inhibition of IL-4 induced CD23 Expression on myeloid cells, IC50",[3],10.8 nM
same,Kd,[4],0.0247 nM
